According to the MegaScale stability set (Tsuboyama et al. 2023):

B1: EHEE_rd2_0601 (parent)
chain: TYTYKLTDEEASRRAEDEWRNRGYDVRVRNNNGTWEVEVR

Variants of: B1
Assay: folding stability dG (cDNA display proteolysis); higher = more stable
Settings: PBS, room temperature

Folding stability dG [kcal/mol] of substitutions, site by site:
D25: I 1.76, S 1.3, H 1.56, R 1.23, Q 1.64, Y 1.27, A 1.25, W 1.53, P 0.219, V 1.52, K 1.16, G 0.602, N 1.3, F 1.35, T 1.46, E 1.82, L 1.48, M 1.36
E18: F 2.71, I 1.74, Q 1.36, V 1.56, R 1.31, C 2.41, K 1.43, S 1.25, T 1.35, D 1.21, Y 3.02, L 2.04, H 1.83, M 2.03, G 0.757, W 2.44, N 1.03, A 1.45
R22: A 1.22, S 0.439, H 0.666, E 0.251, C 1.03, M 1.29, G 0.192, N 0.518, Q 0.939, Y 0.488, L 1.46, F 0.44, K 1.45, I 0.421, D -0.181, W 0.762, T -0.242, V -0.052
R27: P -0.472, I 2.09, M 1.49, T 2.03, F 1.67, Y 1.52, S 1.69, G 0.575, W 1.27, C 1.69, A 1.42, E 1.6, D 1.07, K 1.6, H 1.56, V 2.05, L 1.68, Q 1.56, N 1.36
G33: T -0.078, K -0.238, A -0.168, E 0.259, N 0.553, S 0.025, C 0.74, M -0.081, D 0.603, F -0.159, H -0.011, Q 0.157, L -0.48, R -0.712
N21: H 1.24, M 1.58, W 0.672, L 1.65, F 1.04, I 1.22, S 1.82, K 1.97, E 1.34, D 1.16, V 1.1, R 1.96, G 1.42, A 1.82, Q 1.65, Y 0.831, T 1.31
N31: M 1.31, S 1.1, K 1.16, L 1.51, T 1.21, H 1.32, D 1.06, Y 1.4, P -0.345, W 1.02, E 1.12, R 1.34, V 1.83, F 1.42, A 0.996, Q 1.08, I 1.76, G 0.546
V28: D -0.612, S 0.536, R 1.38, L 0.62, Y 0.207, Q -0.695, M 0.531, C 0.766, N -0.678, F 0.162, T 0.683, A 0.322, H -0.199, G -0.651, I 1.44, K -0.078, W 0.13
N30: P 0.863, T 0.81, I 1.35, D 1, R 1.23, Y 2.33, E 1.7, A 1.03, W 1.8, K 1.34, L 1.6, H 1.61, Q 1.51, V 1.43, G 0.639, M 1.4, S 1.1, F 2.29
A15: E 0.824, W 1.36, D 0.605, H 1.43, T 1.43, V 2.21, P -0.743, S 0.658, M 2.13, Y 1.4, R 0.442, G -0.371, Q 0.788, K 1.37, L 2.46, I 2.2, N 0.072, F 1.85
G23: W -0.693, F -0.542, Q -0.624, Y -0.588, M -0.97, K -0.509, C 1.14, H -0.048, N -0.169
R20: Y 0.246, N 0.373, G 0.028, F 0.22, T 0.945, Q 0.446, K 1.32, I 0.853, L 0.904, W -0.078, H 0.444, A 0.541, M 0.619, E -0.108, V 0.659, S 0.589
V26: I 0.319, F -0.688, T 0.439, P -0.384, A 0.393
W19: M 0.446, E -0.502, F 1.04, H -0.397, A 0.133, L 0.884, Y 0.78, I -0.516, N -0.826
R14: Q 1.35, Y 0.942, W 0.994, N 1.04, M 1.2, S 0.898, G 0.487, V 1.29, H 1.22, E 1, D 0.704, A 1.36, K 1.53, T 0.957, I 1.35, L 1.33, P -0.495, F 1.13
R29: Y 1.74, M 1.26, H 1.49, L 1.4, G 0.418, W 1.56, F 1.63, S 1.55, I 1.78, T 1.86, C 1.06, V 1.67, P -0.71, Q 1.18, A 0.917, N 1.17, K 1.35, D 0.413, E 0.726
D17: Q 2.08, E 1.99, V 2.08, M 2.11, F 1.86, K 2.02, W 1.92, L 2.06, T 1.99, G 1.24, A 2.17, Y 1.77, N 1.78, R 2.1, H 1.68, I 2.17, S 1.88
E16: Y 1.86, F 1.73, D -0.24, R 1.19, Q 1.46, T 1.29, K 0.777, G 1.4, L 1.54, H 1.08, N 0.335, V 2, A 2.56, S 1.47, M 1.68, I 1.82, W 1.3, P -0.034
R13: H 0.979, E 0.263, M 0.987, P -0.953, K 1.45, W 0.841, F 0.619, D 0.014, L 1.08, Q 0.968, G 0.328, V 0.764, Y 0.805, N 0.767, I 0.934, T 0.582, S 0.553
Y24: W 0.791, M 0.281, F 1.51, R -0.49, I -0.012, Q -0.84, K -0.577, T -0.625, H 0.447, N -0.731, V 0.003, C 1.21, L 0.28, A 0.049
N32: A 1.12, H 1.07, F 0.778, V 0.08, D 1.16, S 0.857, K 0.989, T 0.049, G 1.39, R 0.859, Q 1.05, M 1.08, L 0.77, E 1.15, I -0.191, W -0.071, Y 0.605
